Reference: US20240400657A1 (MorphoSys, published 2024)

T1: engineered version of human C5aR expressed on CHO cells of the PathHunter β-arrestin assay (DiscoveRx) (human, UniProt P21730 1-350)
T1 sequence (looked up): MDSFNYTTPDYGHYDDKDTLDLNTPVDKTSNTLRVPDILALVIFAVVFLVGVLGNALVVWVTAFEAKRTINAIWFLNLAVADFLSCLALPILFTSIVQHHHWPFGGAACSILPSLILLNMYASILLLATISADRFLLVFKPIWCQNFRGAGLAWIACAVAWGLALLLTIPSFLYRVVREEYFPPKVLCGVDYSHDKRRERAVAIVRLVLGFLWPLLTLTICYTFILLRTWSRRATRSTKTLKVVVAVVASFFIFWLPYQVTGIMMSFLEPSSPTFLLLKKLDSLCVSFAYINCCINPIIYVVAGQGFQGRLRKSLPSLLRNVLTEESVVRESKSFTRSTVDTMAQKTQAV

T2: full length rat C5aR stably expressed on CHO Flp-In cells (rat (Rattus norvegicus), UniProt P97520 1-352)
T2 sequence: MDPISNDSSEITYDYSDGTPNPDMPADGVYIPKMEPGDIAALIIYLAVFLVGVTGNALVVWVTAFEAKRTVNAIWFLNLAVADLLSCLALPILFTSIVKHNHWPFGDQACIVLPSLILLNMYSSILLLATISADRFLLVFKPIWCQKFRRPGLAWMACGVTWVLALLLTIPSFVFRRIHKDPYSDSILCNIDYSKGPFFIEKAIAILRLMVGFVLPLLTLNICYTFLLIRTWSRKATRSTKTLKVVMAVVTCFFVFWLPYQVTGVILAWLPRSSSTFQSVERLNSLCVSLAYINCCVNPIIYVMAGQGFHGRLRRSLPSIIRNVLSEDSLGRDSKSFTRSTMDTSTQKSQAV

T3: human C5aR_NT-bio peptide (human, biotin tag (position not given))
T3 construct: Chemically synthesized linear peptide (Genscript); also called human C5aR N-terminal peptide; human C5aR peptide
T3 peptide: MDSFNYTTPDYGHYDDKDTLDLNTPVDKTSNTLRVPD

T4: Mouse FcRn p51 [1-297]/AviHis/p14 biotinylated (mouse, UniProt Q61559 22-298; P01887 21-119, biotinylated in vitro with BirA (Avi tag))
T4 construct: Heterodimer; UniProt Q61559 (p51); also called Murine FcRn
T4 chain 1: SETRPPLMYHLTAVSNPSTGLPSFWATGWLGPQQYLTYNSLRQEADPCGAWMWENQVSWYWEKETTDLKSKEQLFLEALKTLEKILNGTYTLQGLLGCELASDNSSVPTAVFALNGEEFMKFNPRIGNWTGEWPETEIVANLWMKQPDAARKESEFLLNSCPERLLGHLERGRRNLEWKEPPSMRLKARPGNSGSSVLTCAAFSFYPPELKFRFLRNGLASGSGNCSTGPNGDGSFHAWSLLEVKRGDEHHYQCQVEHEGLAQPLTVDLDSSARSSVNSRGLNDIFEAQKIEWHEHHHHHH
T4 chain 2: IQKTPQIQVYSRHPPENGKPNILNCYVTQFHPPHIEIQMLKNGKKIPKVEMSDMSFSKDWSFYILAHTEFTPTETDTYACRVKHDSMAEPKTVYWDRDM

T5: Rat FcRn p51 [1-298]/AviHis/p14 biotinylated (rat, UniProt P13599 23-299; P07151 21-119, biotinylated in vitro with BirA (Avi tag))
T5 construct: Heterodimer; UniProt P13599 (p51)
T5 sequence 1: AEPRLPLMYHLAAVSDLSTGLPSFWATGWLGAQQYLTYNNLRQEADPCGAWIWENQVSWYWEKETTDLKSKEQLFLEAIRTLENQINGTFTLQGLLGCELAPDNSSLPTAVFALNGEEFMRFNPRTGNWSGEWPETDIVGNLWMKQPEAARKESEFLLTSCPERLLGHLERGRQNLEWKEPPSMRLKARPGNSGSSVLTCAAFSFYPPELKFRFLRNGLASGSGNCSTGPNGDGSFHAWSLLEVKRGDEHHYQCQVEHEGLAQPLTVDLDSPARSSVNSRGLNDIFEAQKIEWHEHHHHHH
T5 sequence 2: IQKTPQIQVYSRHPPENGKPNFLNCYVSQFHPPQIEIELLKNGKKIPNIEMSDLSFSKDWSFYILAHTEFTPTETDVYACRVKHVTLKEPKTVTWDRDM

T6: cynomolgus C5aR_NT-bio peptide (cynomolgus monkey, biotin tag (position not given))
T6 construct: Chemically synthesized linear peptide (Genscript); also called cynomolgus C5aR N-terminal peptide; cynomolgus C5aR peptide
T6 peptide: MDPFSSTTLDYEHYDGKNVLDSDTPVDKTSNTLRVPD


Assays:
[1] = molecular target: T1, engineered version of human C5aR …; experiment: cell-based or functional assay
[2] = molecular target: T2, full length rat C5aR stably expressed …; experiment: FACS, CHO Flp-In cells expressing rat C5aR, single IgG concentration
[3] = molecular target: T7, full-length human C5L2 expressed on CHO Flp-In cells (human, UniProt Q9P296 1-337); experiment: FACS, CHO Flp-In cells expressing human C5L2, single IgG concentration
T7 construct: also called C5a anaphylatoxin chemotactic receptor 2

Human C1q = molecular target: T8, Human C1q (human, UniProt P02745 23-245; P02746 28-253; P02747 29-245); experiment: BLI (Octet), IgG captured via anti-hu Fab CH1 kappa/lambda on SA sensors, C1q titrated
T8 construct: mature; Plasma-derived complex; also called C1q protein; huC1q
Text: 2.0 nm of IgGs diluted in Octet® buffer were captured onto anti-hu Fab CH1 kappa/lambda (BAC) immobilised onto streptavidin (SA) sensors (FortéBIO, Pall Life Sciences). […] All sensorgrams were fitted using Data Analysis Software 9 (FortéBIO, Pall Life Sciences) to determine the apparent affinity. The data was fitted with a steady state model.

[4] = molecular target: T3, human C5aR_NT-bio peptide; experiment: SPR (Biacore T200), IgG captured on anti-human-Fc, peptide as analyte, 1:1 fit, monovalent
[5] = molecular target: T4, Mouse FcRn p51 [1-297]/AviHis/p14 …; experiment: BLI (Octet HTX), biotinylated FcRn on SA sensors, IgG titrated, steady state fit, apparent KD, pH 6.0
Text: (§1) 0.5 nm of biotinylated human, cynomolgus, mouse and rat FcRn were captured on streptavidin (SA) sensors (FortéBIO, Pall Life Sciences). […] All sensorgrams were fitted using Data Analysis Software 10.0 (FortéBIO, Pall Life Sciences) to determine the apparent affinity and the data was fitted with a steady state model.

[6] = molecular target: T5, Rat FcRn p51 [1-298]/AviHis/p14 …; experiment: as above
Text: as §1

[7] = molecular target: T6, cynomolgus C5aR_NT-bio peptide; experiment: BLI (Octet HTX), biotinylated peptide on SA sensors, IgG as analyte, 1:1 fit, apparent (bivalent); fast koff
[8] = molecular target: T6, cynomolgus C5aR_NT-bio peptide; experiment: SPR (Biacore T200), IgG captured on anti-human-Fc, peptide as analyte, 1:1 fit, monovalent; value marked * (for ranking purposes; fast kon, fast koff)

T8 sequence (P02745 23-245, chain 1 of 3): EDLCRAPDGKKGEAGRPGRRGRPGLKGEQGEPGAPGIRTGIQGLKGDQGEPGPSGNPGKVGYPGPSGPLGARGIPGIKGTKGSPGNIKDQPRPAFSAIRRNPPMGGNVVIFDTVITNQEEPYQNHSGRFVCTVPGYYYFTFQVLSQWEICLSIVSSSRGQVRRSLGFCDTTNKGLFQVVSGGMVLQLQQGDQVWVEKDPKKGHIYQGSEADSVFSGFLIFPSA
T8 sequence (P02746 28-253, chain 2 of 3): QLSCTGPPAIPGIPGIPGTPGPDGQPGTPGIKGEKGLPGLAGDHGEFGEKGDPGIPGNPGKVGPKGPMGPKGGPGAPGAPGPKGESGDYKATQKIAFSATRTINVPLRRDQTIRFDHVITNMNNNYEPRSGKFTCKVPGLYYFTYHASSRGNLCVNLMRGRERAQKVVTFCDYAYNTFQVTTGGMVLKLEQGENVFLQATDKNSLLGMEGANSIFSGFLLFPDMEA
T8 sequence (P02747 29-245, chain 3 of 3): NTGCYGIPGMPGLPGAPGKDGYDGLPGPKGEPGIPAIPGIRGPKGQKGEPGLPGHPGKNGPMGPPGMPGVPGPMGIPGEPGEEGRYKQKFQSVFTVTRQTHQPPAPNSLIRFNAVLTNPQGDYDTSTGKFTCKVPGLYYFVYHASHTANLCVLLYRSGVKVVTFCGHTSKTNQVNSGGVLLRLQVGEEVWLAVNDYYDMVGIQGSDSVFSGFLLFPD
T7 sequence (Q9P296 whole entry): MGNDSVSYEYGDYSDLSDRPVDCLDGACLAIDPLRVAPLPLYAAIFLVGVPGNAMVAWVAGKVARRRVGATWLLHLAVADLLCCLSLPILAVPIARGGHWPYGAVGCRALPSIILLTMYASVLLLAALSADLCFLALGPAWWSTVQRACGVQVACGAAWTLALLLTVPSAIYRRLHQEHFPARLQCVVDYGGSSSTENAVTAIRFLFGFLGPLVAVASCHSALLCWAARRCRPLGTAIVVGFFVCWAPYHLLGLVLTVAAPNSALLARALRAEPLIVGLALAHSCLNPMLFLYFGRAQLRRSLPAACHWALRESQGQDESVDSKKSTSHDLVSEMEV

Row | Binder | [%] inhibition at 1.2 nM C5a and 50 nM IgG, β-arrestin recruitment [1] [%] | [%] inhibition at 11 nM C5a and 50 nM IgG, β-arrestin recruitment [1] [%] | [%] inhibition at 100 nM C5a and 50 nM IgG, β-arrestin recruitment [1] [%] | binding result [2] | binding result [3] | binding result (Human C1q) | Kd [4] [nM] | koff [4] [s⁻¹] | kon [4] [M⁻¹ s⁻¹] | Kd [5] [nM] | Kd [6] [nM] | Kd [7] [nM] | koff [7] [s⁻¹] | kon [7] [M⁻¹ s⁻¹] | Kd [8] [nM] | koff [8] [s⁻¹] | kon [8] [M⁻¹ s⁻¹]
1 | MAB #2 (antibody, human IgG1, lambda, lambda 1 light chain) heavy: EVQLVESGGGLVKPGGSLRLSCAASGFTFSSYAMHWVRQAPGKGLEWVGRIKSVAQGGTTDYAAHVKGRFTISRDDSKNTLYLQMNSLKTEDTAVYYCARVSHSTFDVWGQGTLVTVSSASTKGPSVFPLAPSSKSTSGGTAALGCLVKDYFPEPVTVSWNSGALTSGVHTFPAVLQSSGLYSLSSVVTVPSSSLGTQTYICNVNHKPSNTKVDKRVEPKSCDKTHTCPPCPAPEAEGAPSVFLFPPKPKDTLMISRTPEVTCVVVDVSHEDPEVKFNWYVDGVEVHNAKTKPREEQYNSTYRVVSVLTVLHQDWLNGKEYKCKVSNKALPSSIEKTISKAKGQPREPQVYTLPPSREEMTKNQVSLTCLVKGFYPSDIAVEWESNGQPENNYKTTPPVLDSDGSFFLYSKLTVDKSRWQQGNVFSCSVMHEALHNHYTQKSLSLSPGK light: not shown | 90.5 | 75.2 | 31.2 | no binding (tested: 300 nM) | no binding (tested: 300 nM) | no binding (tested: 500 nM (highest C1q concentration)) | 29 | 0.00127 | 43300 | 7.3 | 10 | 140 | 0.0189 | 138000 | 34000 | 0.145 | 4290
2 | MAB #1 (antibody, human IgG1, lambda, lambda 1 light chain, VH3-15 framework) heavy: EVQLVESGGGLVKPGGSLRLSCAASGFTFSSYAMHWVRQAPGKGLEWVGRIKSKAQGGTTDYAAHVKGRFTISRDDSKNTLYLQMNSLKTEDTAVYYCARVSFSTFDVWGQGTLVTVSSASTKGPSVFPLAPSSKSTSGGTAALGCLVKDYFPEPVTVSWNSGALTSGVHTFPAVLQSSGLYSLSSVVTVPSSSLGTQTYICNVNHKPSNTKVDKRVEPKSCDKTHTCPPCPAPEAEGAPSVFLFPPKPKDTLMISRTPEVTCVVVDVSHEDPEVKFNWYVDGVEVHNAKTKPREEQYNSTYRVVSVLTVLHQDWLNGKEYKCKVSNKALPSSIEKTISKAKGQPREPQVYTLPPSREEMTKNQVSLTCLVKGFYPSDIAVEWESNGQPENNYKTTPPVLDSDGSFFLYSKLTVDKSRWQQGNVFSCSVMHEALHNHYTQKSLSLSPGK light: not shown | 91.9 | 79.9 | 41.8 | no binding (tested: 300 nM) | no binding (tested: 300 nM) | no binding (tested: 500 nM (highest C1q concentration)) | 36 | 0.00179 | 50100 | 4.3 | 5.7 | 63 | 0.0108 | 171000 | 8200 | 0.111 | 13600
